{"source": "paper PMC8724787", "binders": {"B1": {"name": "C10 intact bivalent IgG1 (human monoclonal antibody EDE1 C10) (protein)", "chain 1": "EVQLVESGAEVKKPGASVKVSCKASGYTFTSYAMHWVRQAPGQRLEWMGWINAGNGNTKYSQKFQDRVTITRDTSASTAYMELSSLRSEDTAIYYCARDKVDDYGDYWFPTLWYFDYWGQGTLVTVSS", "chain 2": "QSALTQPASVSGSPGQSITISCTGTSSDVGGFNYVSWFQQHPGKAPKLMLYDVTSRPSGVSSRFSGSKSGNTASLTISGLQAEDEADYYCSSHTSRGTWVFGGGTKLTVL"}, "B2": {"name": "C10 monovalent antigen binding fragment (Fab) (protein)", "chain 1": "B1 chain 1", "chain 2": "B1 chain 2"}}, "target": "DENV1 strain Hawaii envelope (E) protein on virions (Dengue virus 1 (strain Hawaii))", "assay": "ELISA; apparent", "note": "Like-named read-outs stand apart in the source and are kept apart here.", "data": [{"binder": "B1", "values": [{"measurement": "Kd", "value": 2.6, "unit": "nM"}]}, {"binder": "B2", "values": [{"measurement": "Kd", "setting": "Fab", "value": 9.85, "unit": "nM"}]}]}
